Assay results: the supplement of paper PMC9876800

Test system: peptide library, one residue held at a place counted from the S/T acceptor
Assay: relative phosphorylation of the sub-library (ratio to the mean residue at this position); human; higher = residue favoured
Summary of the method: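 Purified recombinant kinases (human or orthologue constructs) were incubated in 384-well plates with biotinylated degenerate peptide sub-libraries, each fixing one residue at one position around a central Ser/Thr. Peptides were at 50 μM, with 50 μM ATP spiked with γ-32P-ATP, for 90 min under kinase-specific conditions. Spots on streptavidin membranes were phosphorimaged and quantified by densitometry. Relative sub-library phosphorylation is a ratio to the mean residue at that position.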

MAP4K3, construct: aa1-380, sequence (Q8IVH8 1-380, looked up): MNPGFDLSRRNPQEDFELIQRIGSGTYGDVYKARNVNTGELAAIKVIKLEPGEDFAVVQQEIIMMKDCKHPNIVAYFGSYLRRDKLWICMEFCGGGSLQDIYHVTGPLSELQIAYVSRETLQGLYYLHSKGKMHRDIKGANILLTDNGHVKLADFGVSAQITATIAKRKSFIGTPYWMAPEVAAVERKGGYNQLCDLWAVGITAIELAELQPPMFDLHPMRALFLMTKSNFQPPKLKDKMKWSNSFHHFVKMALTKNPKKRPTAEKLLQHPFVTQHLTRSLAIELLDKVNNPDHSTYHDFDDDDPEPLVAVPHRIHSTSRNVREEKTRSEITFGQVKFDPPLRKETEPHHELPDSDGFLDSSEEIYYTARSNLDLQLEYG
MAP3K10, construct: aa1-449, sequence (Q02779 1-449, looked up): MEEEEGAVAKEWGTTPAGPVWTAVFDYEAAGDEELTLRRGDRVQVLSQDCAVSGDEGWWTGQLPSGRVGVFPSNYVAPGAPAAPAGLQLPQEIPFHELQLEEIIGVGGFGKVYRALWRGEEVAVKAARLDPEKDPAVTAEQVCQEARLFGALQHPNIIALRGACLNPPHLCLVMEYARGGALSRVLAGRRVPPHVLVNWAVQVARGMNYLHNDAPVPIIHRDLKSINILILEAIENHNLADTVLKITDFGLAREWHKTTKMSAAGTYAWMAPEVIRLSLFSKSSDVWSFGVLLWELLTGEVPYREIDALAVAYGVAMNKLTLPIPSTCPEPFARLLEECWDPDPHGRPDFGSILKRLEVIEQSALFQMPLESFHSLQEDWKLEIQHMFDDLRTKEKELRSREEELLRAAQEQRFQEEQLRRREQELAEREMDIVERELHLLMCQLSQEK
MAP4K5, construct: Full length, sequence (Q9Y4K4 whole entry, looked up): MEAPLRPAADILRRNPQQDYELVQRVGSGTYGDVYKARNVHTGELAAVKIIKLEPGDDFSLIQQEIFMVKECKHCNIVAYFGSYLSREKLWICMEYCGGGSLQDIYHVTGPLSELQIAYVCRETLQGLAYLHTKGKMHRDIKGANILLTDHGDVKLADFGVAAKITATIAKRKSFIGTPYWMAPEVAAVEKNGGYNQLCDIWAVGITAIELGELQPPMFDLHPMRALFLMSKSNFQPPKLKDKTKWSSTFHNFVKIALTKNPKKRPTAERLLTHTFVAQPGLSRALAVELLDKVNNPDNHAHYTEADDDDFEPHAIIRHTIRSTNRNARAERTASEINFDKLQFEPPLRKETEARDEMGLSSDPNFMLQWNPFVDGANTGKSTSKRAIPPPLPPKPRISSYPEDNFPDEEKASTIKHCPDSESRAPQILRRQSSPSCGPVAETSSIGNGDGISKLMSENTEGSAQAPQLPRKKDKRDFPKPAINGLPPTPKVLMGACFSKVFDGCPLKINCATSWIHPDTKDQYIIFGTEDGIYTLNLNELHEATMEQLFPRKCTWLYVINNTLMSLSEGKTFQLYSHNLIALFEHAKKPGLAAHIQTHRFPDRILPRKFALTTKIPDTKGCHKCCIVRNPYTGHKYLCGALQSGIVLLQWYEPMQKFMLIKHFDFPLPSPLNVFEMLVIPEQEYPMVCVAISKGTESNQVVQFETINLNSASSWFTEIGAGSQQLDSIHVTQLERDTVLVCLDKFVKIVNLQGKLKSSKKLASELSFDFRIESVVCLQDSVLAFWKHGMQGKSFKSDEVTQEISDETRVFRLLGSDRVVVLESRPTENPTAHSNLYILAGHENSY
IKBKE, construct: Full length, sequence (Q14164 whole entry, looked up): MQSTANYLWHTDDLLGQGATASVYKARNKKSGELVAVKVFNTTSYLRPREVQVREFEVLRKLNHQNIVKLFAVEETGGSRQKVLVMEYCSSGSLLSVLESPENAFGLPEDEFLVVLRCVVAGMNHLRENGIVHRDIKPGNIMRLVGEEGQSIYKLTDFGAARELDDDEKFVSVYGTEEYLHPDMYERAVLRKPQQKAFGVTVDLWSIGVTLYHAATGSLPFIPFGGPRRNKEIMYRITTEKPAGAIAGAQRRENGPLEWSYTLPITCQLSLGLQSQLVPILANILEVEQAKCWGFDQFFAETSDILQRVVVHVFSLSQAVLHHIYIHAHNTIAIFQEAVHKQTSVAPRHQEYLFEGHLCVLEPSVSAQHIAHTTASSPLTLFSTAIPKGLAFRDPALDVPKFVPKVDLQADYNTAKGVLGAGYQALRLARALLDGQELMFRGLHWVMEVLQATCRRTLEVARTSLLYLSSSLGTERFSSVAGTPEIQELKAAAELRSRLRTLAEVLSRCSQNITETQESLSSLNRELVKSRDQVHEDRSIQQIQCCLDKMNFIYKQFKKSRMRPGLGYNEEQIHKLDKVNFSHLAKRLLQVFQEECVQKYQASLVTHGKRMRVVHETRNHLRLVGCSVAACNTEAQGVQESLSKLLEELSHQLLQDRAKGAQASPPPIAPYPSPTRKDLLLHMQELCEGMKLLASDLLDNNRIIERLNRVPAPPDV

IKBKE, construct: Full length (from UniProt Q14164)
relative phosphorylation
Details	at +1	at +2	at +3	at +4	at -1	at -2	at -3	at -4	at -5
A fixed	0.346	1.18	0.935	0.899	0.911	0.889	1.11	1.12	1.26
D fixed	0.306	1.07	0.898	0.987	1.04	1.25	1.24	1.35	1.34
E fixed	0.22	0.933	0.928	1.01	0.97	0.821	1.2	1.23	1.27
F fixed	1.6	0.967	1.22	1.12	1.03	1.65	0.755	0.829	0.992
G fixed	0.423	0.811	0.961	0.879	0.677	0.857	1.42	1.44	1.21
H fixed	0.688	1.14	1.24	1.15	1.11	0.99	1.09	1.08	1.14
I fixed	2.51	1.06	0.853	0.964	0.899	0.528	0.632	0.796	0.742
K fixed	0.219	0.714	0.471	0.672	0.849	0.563	0.819	0.88	0.927
L fixed	3.41	1.08	0.887	0.994	1.18	1.11	0.743	0.94	0.753
M fixed	3.08	1.18	1.11	1.03	1.28	1.65	1.07	0.928	0.808
N fixed	0.323	1.04	0.9	0.854	0.916	0.916	1.12	1.01	1.06
P fixed	0.178	0.893	1.14	1.1	1.12	1.13	1.3	1.06	0.959
Q fixed	0.292	1.07	0.835	0.839	0.89	0.796	1.05	0.942	0.827
R fixed	0.248	0.931	0.626	0.721	0.955	0.62	0.968	0.845	0.965
V fixed	1.04	1.22	0.936	0.926	0.986	0.544	0.672	0.665	0.861
W fixed	1	0.876	1.33	1.65	0.94	0.934	0.826	0.955	0.922
Y fixed	1.12	0.831	1.74	1.21	1.24	1.76	0.995	0.918	0.974
pThr fixed	0.471	1.03	0.717	1.04	0.722	0.757	1.13	1.18	1
pTyr fixed	0.448	0.8	1.07	0.934	1.18	1.29	1.67	1.13	1.03

MAP3K10, construct: aa1-449 (from UniProt Q02779)
relative phosphorylation
Details	at +1	at +2	at +3	at +4	at -1	at -2	at -3	at -4	at -5
A fixed	0.988	0.921	1.06	1.24	0.881	0.969	1.12	1.23	1.48
D fixed	0.28	0.398	0.506	0.72	0.775	0.594	0.888	1.11	1.11
E fixed	0.404	0.392	0.439	0.573	0.65	0.584	0.827	0.909	0.764
F fixed	1.53	0.602	1.19	0.779	1.05	1.44	0.935	0.693	0.878
G fixed	0.999	0.749	1.42	1.43	0.603	0.911	1.28	1.43	1.39
H fixed	1.65	2.11	1.34	1.07	1.39	1.2	1.19	1.11	1.17
I fixed	0.774	0.445	0.773	0.705	0.65	0.505	0.484	0.541	0.596
K fixed	1.12	1.84	1.01	1.44	1.22	0.514	0.964	1.08	0.953
L fixed	0.764	0.561	0.897	0.75	0.973	0.789	0.731	0.698	0.712
M fixed	1.33	0.634	0.985	0.746	1.14	1.3	0.821	0.879	0.725
N fixed	0.977	1.07	1.06	1.06	1.23	1.08	1.54	1.17	1.01
P fixed	0.32	0.67	1.06	1.7	0.95	1.87	1.51	1.56	1.28
Q fixed	1.54	1.24	1.06	1.35	1.37	1.12	1.26	1.05	0.951
R fixed	1.35	2.26	0.966	0.912	1.09	0.569	0.762	0.957	1
V fixed	0.942	0.635	0.791	0.777	0.806	0.589	0.665	0.636	0.846
W fixed	1.05	1.09	1.28	0.923	1.07	1.5	0.997	1.09	1.24
Y fixed	0.978	1.39	1.16	0.832	1.15	1.47	1.02	0.843	0.884
pThr fixed	0.578	0.503	0.623	0.634	0.63	0.706	0.849	0.914	0.992
pTyr fixed	0.455	0.311	0.519	0.452	0.862	0.525	0.707	0.616	0.73

MAP4K3, construct: aa1-380 (from UniProt Q8IVH8)
relative phosphorylation
Details	at +1	at +2	at +3	at +4	at -1	at -2	at -3	at -4	at -5
A fixed	0.464	0.792	0.671	0.932	0.978	1.09	0.815	0.964	1.07
D fixed	0.179	0.667	0.375	0.655	0.611	0.522	0.553	0.851	0.835
E fixed	0.151	0.643	0.296	0.592	0.437	0.406	0.569	0.894	0.687
F fixed	1.09	0.464	0.536	0.71	0.692	1.16	0.778	0.991	0.922
G fixed	0.613	0.996	0.846	1.12	1.93	1.43	1.51	1.39	1.32
H fixed	0.606	1.12	1.04	1.07	1.21	1.34	1.13	1.04	1.07
I fixed	1.8	0.357	0.432	0.733	0.279	0.676	0.556	0.696	0.772
K fixed	0.642	2.68	2.32	1.93	1.66	0.987	2.27	1.34	1.49
L fixed	3.72	0.602	0.549	0.722	0.859	0.655	0.602	0.748	0.637
M fixed	2.73	0.664	0.51	0.9	1.05	0.687	0.651	0.869	0.862
N fixed	0.632	1.11	0.868	1.05	1.54	1.16	1.07	0.867	1.01
P fixed	0.418	1.16	0.942	1.11	0.741	0.854	1.08	1.13	1.11
Q fixed	0.655	0.952	0.952	1.17	0.998	0.785	0.843	0.928	0.864
R fixed	0.67	3.22	4.5	1.67	1.92	1.5	2.13	1.48	1.45
V fixed	0.672	0.428	0.497	0.743	0.362	0.815	0.529	0.695	0.833
W fixed	1.14	0.528	0.893	0.999	0.668	1.3	0.935	1.16	1.07
Y fixed	0.821	0.615	0.772	0.885	1.06	1.63	0.978	0.968	1.01
pThr fixed	0.928	0.749	0.717	0.614	0.437	0.985	1.11	1.13	1.32
pTyr fixed	0.355	0.389	0.637	0.486	0.516	0.763	1.04	0.852	1.16

MAP4K5, construct: Full length (from UniProt Q9Y4K4)
relative phosphorylation
Details	at +1	at +2	at +3	at +4	at -1	at -2	at -3	at -4	at -5
A fixed	0.585	0.999	0.641	0.969	0.963	1.36	0.963	1.03	1.3
D fixed	0.17	0.718	0.375	0.726	0.63	0.491	0.59	0.756	0.739
E fixed	0.173	0.581	0.319	0.67	0.455	0.368	0.553	0.812	0.721
F fixed	1.1	0.535	0.704	0.783	0.704	1.07	0.744	0.995	0.974
G fixed	0.585	1.04	0.891	1.21	1.79	1.43	1.37	1.33	1.42
H fixed	0.605	1.13	1.23	1.14	1.3	1.41	1.21	1.09	1.02
I fixed	1.89	0.373	0.468	0.709	0.294	0.645	0.528	0.684	0.66
K fixed	0.599	2.46	1.81	1.8	1.43	0.905	2.01	1.25	1.3
L fixed	3.52	0.673	0.672	0.796	0.816	0.636	0.628	0.76	0.607
M fixed	2.8	0.797	0.688	0.88	1	0.773	0.697	0.853	0.819
N fixed	0.506	1.02	0.973	1.04	1.43	1.18	1.13	0.933	0.943
P fixed	0.32	1.13	1.14	1.12	1.2	1.07	0.999	1.24	1.37
Q fixed	0.558	1.12	0.907	1.1	1.01	0.806	1.1	0.96	0.877
R fixed	0.697	2.53	3.55	1.49	1.65	1.36	1.77	1.25	1.25
V fixed	0.78	0.513	0.609	0.718	0.362	0.77	0.591	0.78	0.906
W fixed	1.28	0.647	1.08	0.951	0.778	1.3	1.13	1.23	1.07
Y fixed	0.832	0.738	0.94	0.9	1.19	1.43	0.989	1.05	1.02
pThr fixed	0.61	0.623	0.7	0.522	0.433	0.776	0.874	0.936	1.02
pTyr fixed	0.326	0.397	0.716	0.56	0.602	0.695	0.91	0.881	1.1
